The values that follow are results of earlier work, collected in publication PMC7755605.

A word on the Kd: it is the concentration at which binding is half-saturated.

In this series the target is TRAF6 (Homo sapiens) (UniProt Q9Y4K3).
TRAF6 (Homo sapiens), sequence (Q9Y4K3 whole entry): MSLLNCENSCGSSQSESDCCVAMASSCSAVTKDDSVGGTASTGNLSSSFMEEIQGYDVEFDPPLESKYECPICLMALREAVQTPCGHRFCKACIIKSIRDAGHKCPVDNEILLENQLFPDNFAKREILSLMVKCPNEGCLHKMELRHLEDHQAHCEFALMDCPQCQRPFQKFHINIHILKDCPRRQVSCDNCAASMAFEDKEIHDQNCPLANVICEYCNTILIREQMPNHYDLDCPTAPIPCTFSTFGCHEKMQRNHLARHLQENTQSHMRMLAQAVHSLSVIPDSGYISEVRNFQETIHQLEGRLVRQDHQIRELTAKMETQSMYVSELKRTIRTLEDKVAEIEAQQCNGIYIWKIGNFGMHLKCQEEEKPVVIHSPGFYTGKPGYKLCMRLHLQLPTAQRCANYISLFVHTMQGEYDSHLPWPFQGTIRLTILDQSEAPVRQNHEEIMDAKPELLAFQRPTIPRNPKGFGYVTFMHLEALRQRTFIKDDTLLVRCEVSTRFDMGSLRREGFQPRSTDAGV

TRANCE-R, sequence (Q9Y6Q6 30-616): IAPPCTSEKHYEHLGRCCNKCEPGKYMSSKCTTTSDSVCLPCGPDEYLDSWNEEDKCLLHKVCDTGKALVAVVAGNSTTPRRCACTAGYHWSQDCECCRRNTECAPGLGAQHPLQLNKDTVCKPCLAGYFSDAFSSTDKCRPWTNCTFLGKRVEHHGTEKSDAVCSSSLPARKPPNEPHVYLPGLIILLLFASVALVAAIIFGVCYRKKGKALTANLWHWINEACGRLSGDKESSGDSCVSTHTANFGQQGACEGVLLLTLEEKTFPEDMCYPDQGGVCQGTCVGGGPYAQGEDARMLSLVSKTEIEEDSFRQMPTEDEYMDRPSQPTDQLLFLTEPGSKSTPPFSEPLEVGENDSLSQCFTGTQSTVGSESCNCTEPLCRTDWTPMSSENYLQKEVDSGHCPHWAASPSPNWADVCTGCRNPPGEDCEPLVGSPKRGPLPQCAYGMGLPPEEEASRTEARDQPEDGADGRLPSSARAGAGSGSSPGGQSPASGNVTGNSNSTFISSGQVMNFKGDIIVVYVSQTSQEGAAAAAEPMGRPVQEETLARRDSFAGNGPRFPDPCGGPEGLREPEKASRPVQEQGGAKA

Turning to TRANCE-R (from UniProt Q9Y6Q6), the Kd is 84 µM.
